{"source": "paper PMC10904899", "about": "“Protein engineering of transaminase facilitating enzyme cascade reaction for the biosynthesis of azasugars” (iScience, 2024)", "proteins": {"B1": {"name": "MvTA (Mycolicibacterium vanbaalenii PYR-1) (protein)", "chain": "MGIDTGTSNLVAVEPGAIREDTPAGSVIQYSDYEIDYSSPFAGGVAWIEGEYLPAEDAKISIFDTGFGHSDLTYTVAHVWHGNIFRLGDHLDRLLDGARKLRLDSGYTKDELADITKKCVSLSQLRESFVNLTITRGYGKRKGEKDLSKLTHQVYIYAIPYLWAFPPAEQIFGTTAVVPRHVRRAGRNTVDPTIKNYQWGDLTAASFEAKDRGARTAILMDADNCVAEGPGFNVCIVKDGKLASPSRNALPGITRKTVFEIAGAMGIEAALRDVTSHELYDADEIMAVTTAGGVTPINTLDGVPIGDGEPGPVTVAIRDRFWALMDEPGPLIEAIQY", "notes": "homodimer; PLP on Lys195"}, "B2": {"name": "MvTA (Mycolicibacterium vanbaalenii PYR-1; A168E/H152N/H69K/K142P/K145R/L162I/R215G/S105P/S121M) (protein)", "chain": "B1 chain with H69K, S105P, S121M, K142P, K145R, H152N, L162I, A168E, R215G", "notes": "homodimer; PLP on Lys195"}, "B3": {"name": "MvTA (Mycolicibacterium vanbaalenii PYR-1; A168E/H152N/H69R/K142P/K145R/L162I/R215G/S105P/S121M) (protein)", "chain": "B1 chain with H69R, S105P, S121M, K142P, K145R, H152N, L162I, A168E, R215G", "notes": "homodimer; PLP on Lys195"}}, "note": "Substitutions are numbered along the chain they refer to. Names may count otherwise.", "data": [{"substrate": "C[C@@H](N)c1ccccc1", "test": "HPLC of acetophenone, nonlinear regression", "type": "biochemical, Mycolicibacterium austroafricanum", "settings": "20 mM D-fructose, 0.1 mM PLP, pH 6.0, 30°C", "description": "HPLC of acetophenone, nonlinear regression on MvTA", "units": {"Km": "mM", "kcat": "s⁻¹", "kcat/Km": "M⁻¹ s⁻¹"}, "values": [{"protein": "B1", "Km": 0.71, "kcat": 0.0127, "kcat/Km": 17.8}, {"protein": "B2", "Km": 3.93, "kcat": 0.189, "kcat/Km": 48}, {"protein": "B3", "Km": 8.20, "kcat": 0.65, "kcat/Km": 79.2}]}]}
